Tested on: patients with locally advanced or metastatic urothelial cancer
Experiment: Same phase 2 study: safety (adverse events, NCI CTCAE v4.03)
Assay type: in vivo, human
Excerpt: Safety assessments will be based on the information collected through the safety surveillance process and will include the data from recorded adverse events (AEs) including SAEs, recording of concomitant medication, physical examination findings, cardiac monitoring, and laboratory tests.
The assessment of safety during the course of this study will consist of the surveillance and recording of AEs including SAEs, recording of concomitant medication, and measurements of protocol-specified physical examination findings, cardiac monitoring, and laboratory tests.
AE severity should be graded using the National Cancer Institute's Common Terminology Criteria for Adverse Events (NCI CTCAE), Version 4.03. These criteria are provided in the study manual.
An overview of AEs will provide a tabulation of the incidence of all AEs, treatment-emergent AEs, treatment-related AEs, Grade 3 and higher AEs. SAEs, treatment-related SAEs, deaths, and AEs leading to study treatment discontinuation. Adverse events will be defined as treatment emergent if they are newly occurring or worsened following study treatment.
AEs will be classified by system organ class and preferred tem using the Medical Dictionary for Regulatory Activities (MedDRA) and graded using NCI CTCAE, Version 4.03.
The incidence of AEs will be summarized by system organ class, preferred term, severity and relationship to study drug. In the event of multiple occurrences of the same AE in one patient, the AE will be counted once as the occurrence for the maximum grade. AEs leading to premature discontinuation of study drug will be summarized and listed in the same manner.

[1] = Cohort 2 (N = 89), additional 3 months follow-up
[2] = Cohort 2 (N = 89), count (percent)
[3] = Cohort 2, additional 3 months follow-up

With “enfortumab vedotin: Nectin-4 directed ADC: fully human anti-nectin-4 IgG1 kappa antibody (AGS-22C3) conjugated to MMAE via protease-cleavable maleimidocaproyl valine-citrulline linker” as the substance, how does the “TRAEs, Any Grade: Neutropenia” value [1] read?
The value was 11 (12) n (%).

What about the “TRAEs, Any Grade: Overall” value [1] of the same substance?
The value was 86 (97) n (%).

What about the “TRAEs, Any Grade: Peripheral sensory neuropathy” value [1] of the same substance?
Its value is 44 (49) n (%).

What about the “TRAEs, Any Grade: Pruritus” value [1] of the same substance?
The value was 27 (30) n (%).

And the “TRAEs, Any Grade: Rash maculo-papular” value [1]?
The value was 27 (30) n (%).

And the “TRAEs, Any Grade: nnn Weight decreased” value [1]?
Its value is 23 (26) n (%).

What about the “TRAEs, ≥Grade 3: Anemia” value [1] of the same substance?
Its value is 5 (6) n (%).

What about the “TRAEs, ≥Grade 3: Decreased appetite” value [1] of the same substance?
The value was 5 (6) n (%).

And the “TRAEs, ≥Grade 3: Diarrhea” value [1]?
The value was 5 (6) n (%).

What about the “TRAEs, ≥Grade 3: Fatigue” value [1] of the same substance?
The value was 6 (7) n (%).

And the “TRAEs, ≥Grade 3: Hyperglycemia” value [1]?
Its value is 5 (6) n (%).

And the “TRAEs, ≥Grade 3: Lipase increased” value [1]?
Its value is 5 (6) n (%).

And the “TRAEs, ≥Grade 3: Nausea” value [1]?
Its value is 1 (1) n (%).

What about the “TRAEs, ≥Grade 3: Neutropenia” value [1] of the same substance?
Its value is 8 (9) n (%).

What about the “TRAEs, ≥Grade 3: Overall” value [1] of the same substance?
Its value is 49 (55) n (%).

What about the “TRAEs, ≥Grade 3: Peripheral sensory neuropathy” value [1] of the same substance?
The value was 3 (3) n (%).

What about the “TRAEs, ≥Grade 3: Pruritus” value [1] of the same substance?
The value was 3 (3) n (%).

And the “TRAEs, ≥Grade 3: Rash maculo-papular” value [1]?
Its value is 7 (8) n (%).

What about the “TRAEs, ≥Grade 3: nnn Weight decreased” value [1] of the same substance?
The value was 1 (1) n (%).

What about the “TEAEs leading to death (excluding disease progression): Acute kidney injury” value [2] of the same substance?
The value was 2 (2.2).

What about the “TEAEs leading to death (excluding disease progression): Metabolic acidosis” value [2] of the same substance?
Its value is 1 (1.1).

What about the “TEAEs leading to death (excluding disease progression): Multiple organ dysfunction syndrome” value [2] of the same substance?
Its value is 1 (1.1).

And the “TEAEs leading to death (excluding disease progression): Overall” value [2]?
Its value is 5 (5.6).

What about the “TEAEs leading to death (excluding disease progression): Sepsis” value [2] of the same substance?
The value was 1 (1.1).

What about the “Primary Cause of Death, treatment-related death” value (“Primary Cause of Death” below) (Cohort 2, Subject 10007-0180, death on study day 15) of the same substance?
The value was “Metabolic acidosis”.

And the “Primary Cause of Death” value (Cohort 2, Subject 10013-0190, death on study day 28)?
The value was “Acute kidney injury”.

And the “Primary Cause of Death” value (Cohort 2, Subject 10030-0197, death on study day 25)?
The value was “Multiple organ”.

And the “Primary Cause of Death” value (Cohort 2, Subject 82004-0178, death on study day 203)?
The value was “Pneumonitis”.

And the “Treatment-related TEAEs of interest: hyperglycemia, all grade” value [3]?
Its value is 10%.

And the “Treatment-related TEAEs of interest: hyperglycemia, ≥G3” value [3]?
Its value is 6%.

What about the “Treatment-related TEAEs of interest: peripheral neuropathy, all grade” value [3] of the same substance?
Its value is 56%.

What about the “Treatment-related TEAEs of interest: peripheral neuropathy, ≥G3” value [3] of the same substance?
The value was 8%.

And the “Treatment-related TEAEs of interest: rash, all grade” value [3]?
Its value is 61%.

What about the “Treatment-related TEAEs of interest: rash, ≥G3” value [3] of the same substance?
The value was 17%.

And the “patients who discontinued treatment due to grade 3 dermatitis bullous” value [3]?
The value was “one”.

What about the “skin reactions: grade 4 events” value [3] of the same substance?
The value was 1.

And the “skin reactions: grade 5 events” value [3]?
The value was “no grade 5 events”.

And the “treatment-related TEAEs (all-grade): alopecia” value [3]?
The value was 51%.

And the “treatment-related TEAEs (all-grade): fatigue” value [3]?
Its value is 34%.

And the “treatment-related TEAEs (all-grade): peripheral sensory neuropathy” value [3]?
The value was 49%.

And the “patients with severe cutaneous adverse reactions” value (Cohort 2, irrespective of grade, additional 3 months follow-up)?
The value was 13.

What about the rate of hyperglycemia (Cohort 2, patients with preexisting hyperglycemia) of the same substance?
Its rate of hyperglycemia is 20%.

What about the “rate of peripheral neuropathy” value (Cohort 2, patients with preexisting peripheral neuropathy) of the same substance?
Its value is 60%.

What about the rate of hyperglycemia (Cohort 2, patients without preexisting hyperglycemia) of the same substance?
Its rate of hyperglycemia is 7%.

And the “rate of peripheral neuropathy” value (Cohort 2, patients without preexisting peripheral neuropathy)?
Its value is 55%.

And the “patients with severe cutaneous adverse reactions who had grade 3 events” value (Cohort 2, stomatitis, skin exfoliation, dermatitis bullous, dermatitis exfoliative generalized)?
The value was 4.

What about the “additional treatment-related deaths in the updated analysis” value (Cohort 2, three-month follow-up) of the same substance?
The value was “No additional treatment-related deaths”.

What about the “AE of special interest, All Grade: Hyperglycemia” value (Total (N = 214)) of the same substance?
The value was 36 (16.8) N (%).

What about the “AE of special interest, All Grade: IRR” value (Total (N = 214)) of the same substance?
Its value is 14 (6.5) N (%).

And the “AE of special interest, All Grade: Ocular Events, Blurred Vision” value (Total (N = 214))?
Its value is 30 (14.0) N (%).

And the “AE of special interest, All Grade: Ocular Events, Corneal Disorders” value (Total (N = 214))?
Its value is 23 (10.7) N (%).

And the “AE of special interest, All Grade: Ocular Events, Dry Eye Disorders” value (Total (N = 214))?
The value was 78 (36.4) N (%).

What about the “AE of special interest, All Grade: Peripheral Neuropathy” value (Total (N = 214)) of the same substance?
Its value is 122 (57.0) N (%).

And the “AE of special interest, All Grade: Rash” value (Total (N = 214))?
The value was 126 (58.9) N (%).

And the “AE of special interest, ≥Gr 3: Hyperglycemia” value (Total (N = 214))?
The value was 18 (8.4) N (%).

What about the “AE of special interest, ≥Gr 3: IRR” value (Total (N = 214)) of the same substance?
The value was 2 (0.9) N (%).

And the “AE of special interest, ≥Gr 3: Peripheral Neuropathy” value (Total (N = 214))?
The value was 12 (5.6) N (%).

What about the “AE of special interest, ≥Gr 3: Rash” value (Total (N = 214)) of the same substance?
The value was 30 (14.0) N (%).

And the “Any TEAEs” value (Total (N = 214))?
Its value is 214 (100.0) n (%).

And the “Any TEAEs leading to death” value (Total (N = 214))?
Its value is 15 (7.0) n (%).

And the “Any TEAEs leading to treatment discontinuation” value (Total (N = 214))?
Its value is 38 (18.2) n (%).

And the “Any grade 3-5 TEAEs” value (Total (N = 214))?
The value was 155 (72.4) n (%).

What about the “Any serious TEAEs” value (Total (N = 214)) of the same substance?
Its value is 94 (43.9) n (%).

And the “SAEs (All): Acute kidney injury” value (Total (N = 214))?
The value was 13 (6.1) n (%).

And the “SAEs (All): Cellulitis” value (Total (N = 214))?
Its value is 6 (2.8) n (%).

And the “SAEs (All): Diarrhoea” value (Total (N = 214))?
The value was 6 (2.8) n (%).

What about the “SAEs (All): Febrile neutropenia” value (Total (N = 214)) of the same substance?
Its value is 6 (2.8) n (%).

And the “SAEs (All): Nausea” value (Total (N = 214))?
Its value is 5 (2.3) n (%).

And the “SAEs (All): Overall” value (Total (N = 214))?
Its value is 94 (43.9) n (%).

And the “SAEs (All): Pneumonia” value (Total (N = 214))?
Its value is 6 (2.8) n (%).

And the “SAEs (All): Sepsis” value (Total (N = 214))?
Its value is 8 (3.7) n (%).

And the “SAEs (All): Urinary tract infection” value (Total (N = 214))?
Its value is 9 (4.2) n (%).

And the “SAEs (Related): Acute kidney injury” value (Total (N = 214))?
Its value is 4 (1.9) n (%).

What about the “SAEs (Related): Cellulitis” value (Total (N = 214)) of the same substance?
The value was 2 (0.9) n (%).

What about the “SAEs (Related): Diarrhoea” value (Total (N = 214)) of the same substance?
Its value is 3 (1.4) n (%).

What about the “SAEs (Related): Febrile neutropenia” value (Total (N = 214)) of the same substance?
Its value is 6 (2.8) n (%).

And the “SAEs (Related): Nausea” value (Total (N = 214))?
Its value is 4 (1.9) n (%).

And the “SAEs (Related): Overall” value (Total (N = 214))?
Its value is 39 (18.2) n (%).

And the “SAEs (Related): Pneumonia” value (Total (N = 214))?
The value was 1 (0.5) n (%).

What about the “Treatment-related AE leading to discontinuation: Acute kidney injury” value (Total (N = 214)) of the same substance?
The value was 2 (0.9) n (%).

What about the “Treatment-related AE leading to discontinuation: Asthenia” value (Total (N = 214)) of the same substance?
Its value is 1 (0.5) n (%).

And the “Treatment-related AE leading to discontinuation: Dermatitis bullous” value (Total (N = 214))?
The value was 1 (0.5) n (%).

And the “Treatment-related AE leading to discontinuation: Drug eruption” value (Total (N = 214))?
Its value is 1 (0.5) n (%).

And the “Treatment-related AE leading to discontinuation: Enterocolitis” value (Total (N = 214))?
The value was 1 (0.5) n (%).

And the “Treatment-related AE leading to discontinuation: Fatigue” value (Total (N = 214))?
The value was 1 (0.5) n (%).

And the “Treatment-related AE leading to discontinuation: Hyperglycaemia” value (Total (N = 214))?
The value was 1 (0.5) n (%).

And the “Treatment-related AE leading to discontinuation: Interstitial lung disease” value (Total (N = 214))?
Its value is 1 (0.5) n (%).

And the “Treatment-related AE leading to discontinuation: Lipase increased” value (Total (N = 214))?
The value was 2 (0.9) n (%).

And the “Treatment-related AE leading to discontinuation: Metabolic acidosis” value (Total (N = 214))?
Its value is 1 (0.5) n (%).

From patent publication US20230364254A1, “METHODS FOR TREATING CANCERS WITH ANTIBODY DRUG CONJUGATES (ADC) THAT BIND TO 191P4D12 PROTEINS” (priority 2020, published 2023)
